Assay results published in paper PMC3575800 (Nucleic Acids Research, 2013).

T1: PH domain of the Tfb1 subunit of TFIIH (Tfb1PH; residues 1-115) (S. cerevisiae, UniProt P32776 1-115)
T1 sequence (looked up): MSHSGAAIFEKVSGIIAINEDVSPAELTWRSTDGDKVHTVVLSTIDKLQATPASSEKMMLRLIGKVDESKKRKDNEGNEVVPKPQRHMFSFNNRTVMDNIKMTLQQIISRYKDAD


Assays:
[1] = target: T1, PH domain of the Tfb1 subunit of TFIIH …; assay: ITC
[2] = target: T1, PH domain of the Tfb1 subunit of TFIIH …; assay: NMR titration

| Kd [1] [nM] | stoichiometry N [1] | binding result [2] | fold reduction of affinity against Rad4 76-115 [1] [fold] | Binder |
| --- | --- | --- | --- | --- |
| 11 | 1 | – | – | FYQDEEDDLSDIDWEEVSLDGSL (peptide, UniProt Q06665 41-63, looked up) [Rad34 residues 41-63] |
| > 10000 | – | – | – | FYQDEEDDLSDIDSEEVSLDGSL (peptide, UniProt Q06665 41-63, looked up) [Rad34 residues 41-63, W54S mutant] |
| – | – | binds | – | RSEDEGCDSDECEWEEVELKPKNVK (peptide, UniProt P07276 359-383, looked up) [Rad2 residues 359-383 (acidic segment of the spacer region of Rad2)] |
| 50 | 1 | – | – | TDDSVEEIQSSEEDYDSEEFEDVTDGNEVAGVEDISVEIK (domain or fragment, S. cerevisiae, UniProt P14736 76-115, looked up) [Rad4 residues 76-115 (acidic segment from the N-terminal region of Rad4)] |
| – | 1 | – | 24 | TDDSVEEIQSSEEDYDSEEFEDPTDGNEVAGVEDISVEIK (domain or fragment, S. cerevisiae, UniProt P14736 76-115, looked up) [Rad4 residues 76-115, V98P mutant] |
| – | 1 | – | 50 | TDDSVEEIQSSEEDYDSEEPEDVTDGNEVAGVEDISVEIK (domain or fragment, S. cerevisiae, UniProt P14736 76-115, looked up) [Rad4 residues 76-115, F95P mutant] |
